According to paper doi:10.1101/2024.02.22.580433 (bioRxiv, 2024):
Changes are numbered by the printed parent chain. In names and notes the source's numbering stands.

Key:
[1] = biological target: gp275-do, the minimal MC1 domain of gp275 (Acanthamoeba polyphaga mimivirus) (UniProt Q5UPU2); assay: SEC
SEC = biological target: the molecule itself; assay: SEC

gp275-do, the minimal MC1 domain of gp275 (from UniProt Q5UPU2 97-228) (domain or fragment)
stoichiometry N [1]: 2

B1: Acanthamoeba polyphaga mimivirus gp275 (encoded by gene R252) (natural protein, UniProt Q5UPU2 1-278, looked up)
chain: MMIHIHQDKKMSTRSNKKSTKTEKVAKATKPVENVEVSDNEVQEQAVKTKASGKKVTAKSTKQSGGKNAKSGSKSAKSGSKSAKSGSKTSKTQSGGKGDESRDRYFKLIDAKTGRSFGRYTGGTPKQAASKGFTKMIHKIKAEGGALPKNGTMKIYLRESTRGSPRKVYAYEATRKQLTEPQKIEIEGSDGKKKVITYRYRNVIHKVSAPLPNQLGGLKTSRSNKKSGETKKSGSRSSGSKRSAKPTKSAKNAKSTGNKKVSTKSAGAKKAPAAKASR
stoichiometry N (SEC): 4

B2: gp275-K126A (natural protein, Acanthamoeba polyphaga mimivirus, UniProt Q5UPU2 1-278, looked up)
chain: B1 chain with K126A
stoichiometry N (SEC): 4
